Source: patent publication US7855167

Tests used:
[1] = biological target: WinZip-B1-DHFR[2:I114A] (murine) (UniProt P00375); experiment: cell-based or functional assay
[2] = biological target: WinZip-B2-DHFR[2:I114A] (murine) (UniProt P00375); experiment: cell-based or functional assay

WinZip-A1-DHFR[1] (from UniProt P00375 1-107) (designed binder)
Frequency of dominant Pair at P12 [1]: 82% | Selection factor (competition selection) [1]: 3.2e+06 | frequency of the pair among sequenced colonies at P10 [1]: 33% | Frequency of dominant Pair at P12 [2]: 67% | Selection factor (competition selection) [2]: 87000 | frequency of the pair among sequenced colonies at P10 (fraction (3/5)) [2]: 0.6
